The text below walks through data of publication PMC11476191, “Towards controlling activity of a peptide asparaginyl ligase (PAL) by lumazine synthetase compartmentalization” (Faraday Discussions, 2024).

Data set [1] deals with AaLS-13 (Aquifex aeolicus). In words: SEC; Ni-NTA eluate of the co-expressed proteins on Superose 6; 50 mM sodium phosphate pH 7.0, 150 mM NaCl, 1 mM EDTA, 1 mM TCEP; fractions by SDS-PAGE; repeated in buffer at pH 7.0 and 7.4. On the technique in general: SEC sorts molecules by how far they enter the pores of the column.
Data set [2] deals with the molecule itself. In words: negative stain transmission electron microscopy; purified protein samples (0.05-0.15 mg/mL) on carbon-covered copper grids, uranyl acetate stain, 200 kV.

On to cpAaLS-OaAEP1-C247A, for which the ratio of cpAaLS-OaAEP1-C247A to AaLS-13 in the cage (estimated from SDS-PAGE band intensity) (AaLS-13 per cpAaLS-OaAEP1-C247A) in data set [1] was 3.3.

B1: AaLS-13 (other, Aquifex aeolicus)
chain: MEIYEGKLTAEGLRFGIVASRFNHALVGRLVEGAIDCIVRHGGREEDITLVCVPGSWEIPVAAGELARKEDIDAVIAIGVLIEGAEPHFDYIASEVSKGLANLSLELRKPISFGDITDDELEEAIECAGTEHGNKGWEAALSAIEMANLFKSLR
notes: negatively supercharged engineered variant of lumazine synthase from Aquifex aeolicus (AaLS); Self-assembles into a protein cage; also called His6-tagged AaLS-13; AsLS-13; source: E. coli SHuffle T7 Express, co-expressed with cpAaLS-OaAEP1-C247A (IPTG induction); in lysate, then purified (Ni-NTA IMAC, SEC)
Consider B1, for which the binding result in data set [2] is “binds”.
